Measurements as given in article PMC2483528.

Legend:
Test in all cases: pull-down
GST-Gαs (human) (human) = GST-Gαs (human) (human) (UniProt P63092)
[1] = biological target: GST-Gαi3 wild type (rat) (rat) (UniProt P08753)
[2] = biological target: GST-Gαi3 G203A (rat, inactive mutant) (rat) (UniProt P08753)

UniProt P63092, sequence (P63092 2-394): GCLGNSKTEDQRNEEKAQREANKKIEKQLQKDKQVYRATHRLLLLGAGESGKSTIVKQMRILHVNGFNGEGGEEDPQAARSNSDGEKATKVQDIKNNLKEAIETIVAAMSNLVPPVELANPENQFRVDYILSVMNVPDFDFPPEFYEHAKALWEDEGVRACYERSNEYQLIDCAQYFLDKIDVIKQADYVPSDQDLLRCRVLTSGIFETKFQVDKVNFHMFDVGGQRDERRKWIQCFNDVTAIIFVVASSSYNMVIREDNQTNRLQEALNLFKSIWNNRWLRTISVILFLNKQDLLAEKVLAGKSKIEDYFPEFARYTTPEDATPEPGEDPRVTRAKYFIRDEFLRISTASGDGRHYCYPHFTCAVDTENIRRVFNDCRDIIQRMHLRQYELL

| percent of the total GIV bound [1] [%] | percent of GIV bound to GST-Gαi3 [1] [%] | Substance | fold less GIV bound than by GST-Gαi3 (GST-Gαs (human) (human)) [fold] | fold more GIV bound than by Gαi3Q204L [2] [fold] |
| --- | --- | --- | --- | --- |
| 10 to 30 |  | GIV (Gα-interacting vesicle-associated protein), endogenous in HeLa cell lysate (natural protein) | 100 to 300 | 10 to 15 |
|  | 13 | GIV S1416A, in vitro translated (natural protein) |  |  |
|  | 14 | GIV S1416D, in vitro translated (natural protein) |  |  |

| Substance | percent of the total GIV bound [1] [%] | percent of GIV bound to GST-Gαi3 [1] [%] | fold less GIV bound than by GST-Gαi3 (GST-Gαs (human) (human)) [fold] | fold more GIV bound than by Gαi3Q204L [2] [fold] |
| --- | --- | --- | --- | --- |
| GIV, full length, in vitro translated (natural protein) |  | 14 | 100 to 300 | 10 to 15 |
